Source: patent publication US20170137473A1, “FLUOROGEN ACTIVATING AND SHIFTING TAG (FAST)” (PARIS SCIENCES ET LETTRE - QUARTIER LATIN, priority 2014, published 2017)
Where a chain is given by its changes, count along the chain named.

B1: Clone 6: fluorescent HBR-binding PYP variant, SEQ ID NO: 6, residues 94-101 WLIPTRNA (protein)
chain: MEHVAFGSEDIENTLAKMDDGQLDGLAFGAIQLDGDGNILQYNAAEGDITGRDPKQVIGKNFFKDVAPGTDSPEFYGKFKEGVASGNLNTMFEWLIPTRNAPTKVKVHMKKALSGDSYWVFVKRV
modifications: Functional derivative of SEQ ID NO: 48 - Clone 6
B2: Clone 2: fluorescent HBR-binding PYP variant, SEQ ID NO: 2, residues 94-101 WLIPTLPQ (protein)
chain: B1 chain with R99L, N100P, A101Q
modifications: Functional derivative of SEQ ID NO: 48 - Clone 2
B3: Clone 4: fluorescent HBR-binding PYP variant, SEQ ID NO: 4, residues 94-101 WDIPTNPE (protein)
chain: B1 chain with L95D, R99N, N100P, A101E
modifications: Functional derivative of SEQ ID NO: 48 - Clone 4
B4: Clone 5: fluorescent HBR-binding PYP variant, SEQ ID NO: 5, residues 94-101 WRIPTECA (protein)
chain: B1 chain with L95R, R99E, N100C
modifications: Functional derivative of SEQ ID NO: 48 - Clone 5

Test: Absorption and emission properties of HBR-binding PYP variants in presence of HBR
Assay type: physicochemical
Details: variant with HBR
Experimental: pH measurements were performed on a Standard pH meter PHM210 Radiometer Analytical (calibrated with aqueous buffers at pH 4 and 7 or 10) with a Crison 5208 Electrode (Barcelona, Spain). UV/Vis absorption spectra were recorded in 1 cm×1 cm quartz cuvettes (Hellma) on a diode array UV/Vis spectrophotometer (Evolution array, Thermo Scientific). Corrected fluorescence spectra upon one-photon excitation were recorded with a Photon Technology International QuantaMaster QM-1 spectrofluorimeter (PTI, Monmouth Junction, NJ) equipped with a Peltier cell holder (TLC50, Quantum Northwest, Shoreline, Wash.). The overall emission quantum yields after one-photon excitation φ were calculated from the relation: […]
where the subscript ref stands for standard samples. A(λexc) is the absorbance at the excitation wavelength λexc, D is the integrated emission spectrum, and n is the refractive index for the solvent. The uncertainty for the experimental value of φ was estimated to be ±20%. The standard fluorophore for the quantum yields measurements was Fluorescein in sodium hydroxide 0.1 M with φref=0.92. The titration experiments used for the determination of the thermodynamic constants were performed on a SpectraMax®M5e (Molecular Devices) plate-reader. The on- and off-rate constants were determined by stopped-flow experiments using a RX2000 rapid kinetic stopped flow accessory (Applied Photophysics, Leatherhead, UK). The circular dichroism spectra were recorded on a J-815 circular dichroism spectropolarimeter (Jasco). The photobleaching experiments were performed on a the Photon Technology International QuantaMaster QM-1 spectrofluorimeter (PTI, Monmouth Junction, NJ) equipped with a Peltier cell holder (TLC50, Quantum Northwest, Shoreline, Wash.).
The photophysical properties of the engineered fluorescent proteins were more precisely characterized. […] This 70 nm red-shift in absorption was in accordance with HBR being bound within the PYP-variant cavity in its deprotonated state. This red-shift in absorption upon binding was also accompanied with a large fluorescence increase at 540 nm (FIG. 10 and Table 2 below).

Molecule	Extinction coefficient	Relative brightness (% of EGFP)	brightness
B1	43,000 M^−1cm^−1	9.0 % of EGFP	3,000
B2	46,000 M^−1cm^−1	8.3 % of EGFP	2,800
B3	41,000 M^−1cm^−1	7.4 % of EGFP	2,500
B4	47,000 M^−1cm^−1	8.3 % of EGFP	2,800

Same assay, conditions: variant with HBR, PBS pH 7.4

Molecule	λabs [nm]	λem [nm]
B1	467	539
B2	466	540
B3	468	541
B4	468	542

Same assay, conditions: variant with HBR; fraction

Molecule	Fluorescence quantum yield
B1	0.07
B2	0.06
B3	0.06
B4	0.06

Test: not given
Details: known in the art; cited from earlier work

Molecule	absorption wavelength, deprotonated form [nm]	absorption wavelength, protonated form [nm]
parahydroxybenzylidene-5-imidazolinone [p-HBI]	475	397
